{"source": "patent US20120100561", "key": {"[1]": {"biological_target": "Myc-RhoC (N-terminal Myc epitope-tagged full-length human RhoC)", "sequence (chain, as listed by the source)": "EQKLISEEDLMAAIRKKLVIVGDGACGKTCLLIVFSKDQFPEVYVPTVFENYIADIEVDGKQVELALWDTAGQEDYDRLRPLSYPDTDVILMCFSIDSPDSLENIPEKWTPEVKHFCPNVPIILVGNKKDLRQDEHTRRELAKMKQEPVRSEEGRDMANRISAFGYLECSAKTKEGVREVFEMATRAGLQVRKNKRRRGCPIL"}, "[2]": {"biological_target": "T1, phosphoinositide-dependent kinase-1 (PDK1), O15530", "T1 chain": "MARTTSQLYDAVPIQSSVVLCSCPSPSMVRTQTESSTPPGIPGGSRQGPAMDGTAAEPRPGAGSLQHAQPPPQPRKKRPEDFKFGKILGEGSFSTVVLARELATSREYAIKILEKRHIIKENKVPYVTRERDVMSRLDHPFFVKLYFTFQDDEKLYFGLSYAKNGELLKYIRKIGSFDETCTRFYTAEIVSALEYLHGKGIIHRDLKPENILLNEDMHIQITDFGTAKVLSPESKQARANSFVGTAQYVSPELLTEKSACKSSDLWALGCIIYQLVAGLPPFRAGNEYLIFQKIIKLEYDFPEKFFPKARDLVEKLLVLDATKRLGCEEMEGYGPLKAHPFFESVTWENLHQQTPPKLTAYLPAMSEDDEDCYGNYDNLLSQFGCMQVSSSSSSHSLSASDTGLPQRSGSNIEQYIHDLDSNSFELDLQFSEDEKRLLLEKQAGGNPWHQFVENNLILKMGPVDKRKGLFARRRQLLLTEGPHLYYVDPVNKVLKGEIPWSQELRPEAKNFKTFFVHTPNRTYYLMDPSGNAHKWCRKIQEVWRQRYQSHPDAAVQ"}}, "data": [{"protein": "Flag-PKN3 wt (N-terminal Flag epitope-tagged full-length kinase active human PKN3) (protein) DYKDDDKMEEGAPRQPGPSQWPPEDEKEVIRRAIQKELKIKEGVENLRRVATDRRHLGHVQQLLRSSNRRLEQLHGELRELHARILLPGPGPGPAEPVASGPRPWAEQLRARHLEALRRQLHVELKVKQGAENMTHTCASGTPKERKLLAAAQQMLRDSQLKVALLRMKISSLEASGSPEPGPELLAEELQHRLHVEAAVAEGAKNVVKLLSSRRTQDRKALAEAQAQLQESSQKLDLLRLALEQLLEQLPPAHPLRSRVTRELRAAVPGYPQPSGTPVKPTALTGTLQVRLLGCEQLLTAVPGRSPAAALASSPSEGWLRTKAKHQRGRGELASEVLAVLKVDNRVVGQTGWGQVAEQSWDQTFVIPLERARELEIGVHWRDWRQLCGVAFLRLEDFLDNACHQLSLSLVPQGLLFAQVTFCDPVIERRPRLQRQERIFSKRRGQDFLRASQMNLGMAAWGRLVMNLLPPCSSPSTISPPKGCPRTPTTLREASDPATPSNFLPKKTPLGEEMTPPPKPPRLYLPQEPTSEETPRTKRPHMEPRTRRGPSPPASPTRKPPRLQDFRCLAVLGRGHFGKVLLVQFKGTGKYYAIKALKKQEVLSRDEIESLYCEKRILEAVGCTGHPFLLSLLACFQTSSHACFVTEFVPGGDLMMQIHEDVFPEPQARFYVACVVLGLQFLHEKKIIYRDLKLDNLLLDAQGFLKIADFGLCKEGIGFGDRTSTFCGTPEFLAPEVLTQEAYTRAVDWWGLGVLLYEMLVGECPFPGDTEEEVFDCIVNMDAPYPGFLSVQGLEFIQKLLQKCPEKRLGAGEQDAEEIKVQPFFRTTNWQALLARTIQPPFVPTLCGPADLRYFEGEFTGLPPALTPPAPHSLLTARQQAAFRDFDFVSERFLEP", "values": [{"measurement": "kinase activity of the anti-Flag immunoprecipitate toward the PKN3 substrate (GSK3α-derived fragment, SEQ ID NO:1), Western blot", "setting": "[1]", "result": "the kinase activity is greatest for the PPRC complex than either PKN3 alone, or PKN3 and RhoC combined"}, {"measurement": "kinase activity of the anti-Flag immunoprecipitate toward the PKN3 substrate (GSK3α-derived fragment, SEQ ID NO:1), Western blot", "setting": "[2]", "result": "the kinase activity is greatest for the PPRC complex than either PKN3 alone, or PKN3 and RhoC combined"}]}]}
